# Assay results reported in IntAct's records for PubMed 35512704.
# B1: Mothers against decapentaplegic homolog 4 (Homo sapiens), Q13485 (parent)
# chain: MDNMSITNTPTSNDACLSIVHSLMCHRQGGESETFAKRAIESLVKKLKEKKDELDSLITAITTNGAHPSKCVTIQRTLDGRLQVAGRKGFPHVIYARLWRWPDLHKNELKHVKYCQYAFDLKCDSVCVNPYHYERVVSPGIDLSGLTLQSNAPSSMMVKDEYVHDFEGQPSLSTEGHSIQTIQHPPSNRASTETYSTPALLAPSESNATSTANFPNIPVASTSQPASILGGSHSEGLLQIASGPQPGQQQNGFTGQPATYHHNSTTTWTGSRTAPYTPNLPHHQNGHLQHHPPMPPHPGHYWPVHNELAFQPPISNHPAPEYWCSIAYFEMDVQVGETFKVPSSCPIVTVDGYVDPSGGDRFCLGQLSNVHRTEAIERARLHIGKGVQLECKGEGDVWVRCLSDHAVFVQSYYLDREAGRAPGDAVHKIYPSAYIKVFDLRQCHRQMQQQAATAQAAAAAQAAAVAGNIPGPGSVGGIAPAISLSAAAGIGVDDLRRLCILRMSFVKGWGPDYPRQSIKETPCWIEIHLHRALQLLDEVLHTMPIADPQPLD
# Variants of: B1
# Details: with smad3_human SMAD3, P84022
row,effect of a mutation on the interaction,Variant
1,disrupting interaction strength,R361H

# Variants of: B1
# Details: with agap2_human AGAP2, Q99490
row,effect of a mutation on the interaction,Variant
1,with no effect,R361H

# Variants of: B1
# Details: with ajuba_human AJUBA
row,effect of a mutation on the interaction,Variant
1,with no effect,R361H

# Variants of: B1
# Details: with akt1_human AKT1, P31749
row,effect of a mutation on the interaction,Variant
1,with no effect,R361H

# Variants of: B1
# Details: with akts1_human AKT1S1, Q96B36
row,effect of a mutation on the interaction,Variant
1,with no effect,R361H

# Variants of: B1
# Details: with akt3_human AKT3, Q9Y243
row,effect of a mutation on the interaction,Variant
1,with no effect,R361H

# Variants of: B1
# Details: with alk_human ALK
row,effect of a mutation on the interaction,Variant
1,with no effect,R361H

# Variants of: B1
# Details: with aph1a_human APH1A
row,effect of a mutation on the interaction,Variant
1,with no effect,R361H

# Variants of: B1
# Details: with arnt_human ARNT
row,effect of a mutation on the interaction,Variant
1,with no effect,R361H

# Variants of: B1
# Details: with arc1a_human ARPC1A
row,effect of a mutation on the interaction,Variant
1,with no effect,R361H

# Variants of: B1
# Details: with asxl1_human ASXL1, Q8IXJ9
# asxl1_human ASXL1, Q8IXJ9, sequence (Q8IXJ9 whole entry): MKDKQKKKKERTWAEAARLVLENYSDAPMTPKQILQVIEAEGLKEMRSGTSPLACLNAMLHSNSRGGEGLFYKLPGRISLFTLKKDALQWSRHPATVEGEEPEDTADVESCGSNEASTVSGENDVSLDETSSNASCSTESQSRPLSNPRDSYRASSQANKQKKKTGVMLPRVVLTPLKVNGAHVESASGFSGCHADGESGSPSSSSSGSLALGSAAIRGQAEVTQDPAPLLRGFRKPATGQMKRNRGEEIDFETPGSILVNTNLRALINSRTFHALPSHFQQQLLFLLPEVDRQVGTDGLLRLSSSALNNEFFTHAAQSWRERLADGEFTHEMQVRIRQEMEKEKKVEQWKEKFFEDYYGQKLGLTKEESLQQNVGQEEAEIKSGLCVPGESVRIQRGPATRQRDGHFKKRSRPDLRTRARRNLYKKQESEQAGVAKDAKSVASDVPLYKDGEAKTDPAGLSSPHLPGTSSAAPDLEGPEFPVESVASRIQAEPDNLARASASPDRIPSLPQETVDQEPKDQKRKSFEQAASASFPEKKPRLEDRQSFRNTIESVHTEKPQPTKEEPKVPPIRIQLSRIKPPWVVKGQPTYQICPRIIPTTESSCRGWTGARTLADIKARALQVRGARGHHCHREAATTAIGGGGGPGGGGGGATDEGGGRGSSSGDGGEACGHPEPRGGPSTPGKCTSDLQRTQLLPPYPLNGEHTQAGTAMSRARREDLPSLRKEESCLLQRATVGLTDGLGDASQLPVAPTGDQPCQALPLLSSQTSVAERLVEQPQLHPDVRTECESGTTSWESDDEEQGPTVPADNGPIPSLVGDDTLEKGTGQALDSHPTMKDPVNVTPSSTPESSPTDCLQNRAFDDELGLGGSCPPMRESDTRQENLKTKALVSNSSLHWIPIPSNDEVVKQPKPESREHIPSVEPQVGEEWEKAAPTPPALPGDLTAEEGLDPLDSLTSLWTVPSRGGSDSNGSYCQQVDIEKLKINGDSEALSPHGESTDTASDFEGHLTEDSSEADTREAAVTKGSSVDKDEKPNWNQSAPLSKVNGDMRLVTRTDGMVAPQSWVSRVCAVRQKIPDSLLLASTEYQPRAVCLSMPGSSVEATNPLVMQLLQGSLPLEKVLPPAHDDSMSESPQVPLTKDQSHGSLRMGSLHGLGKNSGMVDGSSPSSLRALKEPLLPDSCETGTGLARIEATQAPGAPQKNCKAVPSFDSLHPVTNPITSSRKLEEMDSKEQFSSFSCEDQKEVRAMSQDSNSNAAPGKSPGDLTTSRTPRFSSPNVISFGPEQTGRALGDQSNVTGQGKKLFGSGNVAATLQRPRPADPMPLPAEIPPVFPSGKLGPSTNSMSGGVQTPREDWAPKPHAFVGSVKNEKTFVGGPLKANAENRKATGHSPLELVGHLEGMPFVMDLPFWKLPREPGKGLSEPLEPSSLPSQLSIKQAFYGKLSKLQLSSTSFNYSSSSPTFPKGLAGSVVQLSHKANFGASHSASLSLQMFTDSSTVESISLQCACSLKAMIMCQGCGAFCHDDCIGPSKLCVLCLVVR
row,effect of a mutation on the interaction,Variant
1,with no effect,R361H

# Variants of: B1
# Details: with bakor_human ATG14, Q6ZNE5
row,effect of a mutation on the interaction,Variant
1,with no effect,R361H

# Variants of: B1
# Details: with atpb_human ATP5F1B
row,effect of a mutation on the interaction,Variant
1,with no effect,R361H

# Variants of: B1
# Details: with aurkb_human AURKB
row,effect of a mutation on the interaction,Variant
1,with no effect,R361H

# Variants of: B1
# Details: with ufo_human AXL
row,effect of a mutation on the interaction,Variant
1,with no effect,R361H

# Variants of: B1
# Details: with za2g_human AZGP1, P25311
row,effect of a mutation on the interaction,Variant
1,with no effect,R361H

# Variants of: B1
# Details: with b2mg_human B2M
row,effect of a mutation on the interaction,Variant
1,with no effect,R361H

# Variants of: B1
# Details: with bap1_human BAP1, Q92560
row,effect of a mutation on the interaction,Variant
1,with no effect,R361H

# Variants of: B1
# Details: with becn1_human BECN1, Q14457
row,effect of a mutation on the interaction,Variant
1,with no effect,R361H

# Variants of: B1
# Details: with birc2_human BIRC2, Q13490
row,effect of a mutation on the interaction,Variant
1,with no effect,R361H

# Variants of: B1
# Details: with braf_human BRAF
row,effect of a mutation on the interaction,Variant
1,with no effect,R361H

# Variants of: B1
# Details: with baba2_human BABAM2, Q9NXR7
row,effect of a mutation on the interaction,Variant
1,with no effect,R361H

# Variants of: B1
# Details: with cbl_human CBL
row,effect of a mutation on the interaction,Variant
1,with no effect,R361H

# Variants of: B1
# Details: with cblb_human CBLB
row,effect of a mutation on the interaction,Variant
1,with no effect,R361H

# Variants of: B1
# Details: with ccnd2_human CCND2, P30279
row,effect of a mutation on the interaction,Variant
1,with no effect,R361H

# Variants of: B1
# Details: with ccnd3_human CCND3, P30281
row,effect of a mutation on the interaction,Variant
1,with no effect,R361H

# Variants of: B1
# Details: with cd44_human CD44, P16070
row,effect of a mutation on the interaction,Variant
1,with no effect,R361H

# Variants of: B1
# Details: with cd79b_human CD79B
row,effect of a mutation on the interaction,Variant
1,with no effect,R361H

# Variants of: B1
# Details: with cdn2b_human CDKN2B
row,effect of a mutation on the interaction,Variant
1,with no effect,R361H

# Variants of: B1
# Details: with cdn2c_human CDKN2C
row,effect of a mutation on the interaction,Variant
1,with no effect,R361H

# Variants of: B1
# Details: with cebpa_human CEBPA
row,effect of a mutation on the interaction,Variant
1,with no effect,R361H

# Variants of: B1
# Details: with chd1l_human CHD1L
row,effect of a mutation on the interaction,Variant
1,with no effect,R361H

# Variants of: B1
# Details: with ch3l1_human CHI3L1, P36222
row,effect of a mutation on the interaction,Variant
1,with no effect,R361H

# Variants of: B1
# Details: with ctna1_human CTNNA1, P35221
row,effect of a mutation on the interaction,Variant
1,with no effect,R361H

# Variants of: B1
# Details: with ctnb1_human CTNNB1, P35222
# ctnb1_human CTNNB1, P35222, sequence (P35222 whole entry): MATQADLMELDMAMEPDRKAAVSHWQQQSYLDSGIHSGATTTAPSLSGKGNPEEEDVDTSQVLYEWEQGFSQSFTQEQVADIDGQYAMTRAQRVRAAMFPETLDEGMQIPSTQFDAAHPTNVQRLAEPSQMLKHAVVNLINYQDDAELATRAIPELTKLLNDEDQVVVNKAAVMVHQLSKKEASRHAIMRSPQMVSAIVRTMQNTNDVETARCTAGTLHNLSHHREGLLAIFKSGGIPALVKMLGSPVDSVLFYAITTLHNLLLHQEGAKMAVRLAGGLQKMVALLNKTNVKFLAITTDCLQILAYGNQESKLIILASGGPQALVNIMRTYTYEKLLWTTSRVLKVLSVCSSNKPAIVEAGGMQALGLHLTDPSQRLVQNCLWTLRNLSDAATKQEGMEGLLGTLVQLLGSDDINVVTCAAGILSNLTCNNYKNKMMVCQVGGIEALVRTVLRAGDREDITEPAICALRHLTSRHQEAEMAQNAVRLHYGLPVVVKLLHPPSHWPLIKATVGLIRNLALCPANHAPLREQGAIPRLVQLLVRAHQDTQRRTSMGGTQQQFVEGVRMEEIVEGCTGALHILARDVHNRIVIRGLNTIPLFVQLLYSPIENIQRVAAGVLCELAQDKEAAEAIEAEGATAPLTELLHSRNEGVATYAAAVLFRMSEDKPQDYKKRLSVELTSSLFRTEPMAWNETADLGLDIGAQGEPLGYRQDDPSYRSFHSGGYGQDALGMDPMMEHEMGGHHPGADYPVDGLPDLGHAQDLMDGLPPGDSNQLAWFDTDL
row,effect of a mutation on the interaction,Variant
1,with no effect,R361H

# Variants of: B1
# Details: with cul3_human CUL3, Q13618
row,effect of a mutation on the interaction,Variant
1,with no effect,R361H

# Variants of: B1
# Details: with cul4b_human CUL4B
row,effect of a mutation on the interaction,Variant
1,with no effect,R361H

# Variants of: B1
# Details: with dicer_human DICER1, Q9UPY3
row,effect of a mutation on the interaction,Variant
1,with no effect,R361H

# Variants of: B1
# Details: with dll3_human DLL3, Q9NYJ7
row,effect of a mutation on the interaction,Variant
1,with no effect,R361H

# Variants of: B1
# Details: with duox2_human DUOX2, Q9NRD8
row,effect of a mutation on the interaction,Variant
1,with no effect,R361H

# Variants of: B1
# Details: with e2f3_human E2F3, O00716
row,effect of a mutation on the interaction,Variant
1,with no effect,R361H

# Variants of: B1
# Details: with e2f4_human E2F4, Q16254
row,effect of a mutation on the interaction,Variant
1,with no effect,R361H

# Variants of: B1
# Details: with e2f5_human E2F5, Q15329
row,effect of a mutation on the interaction,Variant
1,with no effect,R361H

# Variants of: B1
# Details: with if4e_human EIF4E
row,effect of a mutation on the interaction,Variant
1,with no effect,R361H

# Variants of: B1
# Details: with epha2_human EPHA2, P29317
row,effect of a mutation on the interaction,Variant
1,with no effect,R361H

# Variants of: B1
# Details: with epha7_human EPHA7, Q15375
# epha7_human EPHA7, Q15375, sequence (Q15375 whole entry, looked up): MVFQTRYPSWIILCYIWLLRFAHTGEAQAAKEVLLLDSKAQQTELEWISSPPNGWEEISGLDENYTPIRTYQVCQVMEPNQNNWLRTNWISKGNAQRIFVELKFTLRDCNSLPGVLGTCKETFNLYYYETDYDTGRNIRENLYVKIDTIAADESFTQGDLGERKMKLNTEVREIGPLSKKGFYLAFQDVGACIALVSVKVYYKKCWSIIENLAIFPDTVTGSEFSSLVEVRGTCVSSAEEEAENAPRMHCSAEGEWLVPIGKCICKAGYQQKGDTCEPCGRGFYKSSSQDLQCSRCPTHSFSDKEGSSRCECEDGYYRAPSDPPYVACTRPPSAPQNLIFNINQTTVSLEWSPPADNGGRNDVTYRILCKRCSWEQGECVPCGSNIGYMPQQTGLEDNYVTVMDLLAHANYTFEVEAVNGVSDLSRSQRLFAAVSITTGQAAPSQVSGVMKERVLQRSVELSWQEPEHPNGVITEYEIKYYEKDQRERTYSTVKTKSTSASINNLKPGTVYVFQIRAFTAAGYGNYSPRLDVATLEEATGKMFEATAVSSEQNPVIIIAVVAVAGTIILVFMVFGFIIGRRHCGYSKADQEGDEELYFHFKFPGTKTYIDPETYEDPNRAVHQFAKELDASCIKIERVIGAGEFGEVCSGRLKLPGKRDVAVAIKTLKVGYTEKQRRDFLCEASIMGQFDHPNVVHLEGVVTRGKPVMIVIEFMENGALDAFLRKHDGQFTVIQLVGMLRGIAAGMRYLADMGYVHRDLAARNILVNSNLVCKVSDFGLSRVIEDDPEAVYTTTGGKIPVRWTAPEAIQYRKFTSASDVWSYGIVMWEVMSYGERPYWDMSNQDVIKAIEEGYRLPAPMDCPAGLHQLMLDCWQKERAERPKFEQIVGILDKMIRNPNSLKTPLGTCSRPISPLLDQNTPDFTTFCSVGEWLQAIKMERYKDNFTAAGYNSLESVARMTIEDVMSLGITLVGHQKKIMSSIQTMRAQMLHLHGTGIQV
row,effect of a mutation on the interaction,Variant
1,with no effect,R361H

# Variants of: B1
# Details: with ephb1_human EPHB1, P54762
row,effect of a mutation on the interaction,Variant
1,with no effect,R361H

# Variants of: B1
# Details: with erbb3_human ERBB3, P21860
row,effect of a mutation on the interaction,Variant
1,with no effect,R361H

# Variants of: B1
# Details: with erbb4_human ERBB4, Q15303
row,effect of a mutation on the interaction,Variant
1,with no effect,R361H

# Variants of: B1
# Details: with esr1_human ESR1, P03372
row,effect of a mutation on the interaction,Variant
1,with no effect,R361H

# Variants of: B1
# Details: with etv1_human ETV1, P50549
row,effect of a mutation on the interaction,Variant
1,with no effect,R361H

# Variants of: B1
# Details: with fadd_human FADD
row,effect of a mutation on the interaction,Variant
1,with no effect,R361H

# Variants of: B1
# Details: with facd2_human FANCD2, Q9BXW9
row,effect of a mutation on the interaction,Variant
1,with no effect,R361H

# Variants of: B1
# Details: with fgf19_human FGF19, O95750
row,effect of a mutation on the interaction,Variant
1,with no effect,R361H

# Variants of: B1
# Details: with fgfr3_human FGFR3, P22607
row,effect of a mutation on the interaction,Variant
1,with no effect,R361H

# Variants of: B1
# Details: with fgfr4_human FGFR4, P22455
row,effect of a mutation on the interaction,Variant
1,with no effect,R361H

# Variants of: B1
# Details: with foxo1_human FOXO1, Q12778
row,effect of a mutation on the interaction,Variant
1,with no effect,R361H

# Variants of: B1
# Details: with gbra6_human GABRA6, Q16445
row,effect of a mutation on the interaction,Variant
1,with no effect,R361H

# Variants of: B1
# Details: with gata2_human GATA2, P23769
# gata2_human GATA2, P23769, sequence (P23769 whole entry): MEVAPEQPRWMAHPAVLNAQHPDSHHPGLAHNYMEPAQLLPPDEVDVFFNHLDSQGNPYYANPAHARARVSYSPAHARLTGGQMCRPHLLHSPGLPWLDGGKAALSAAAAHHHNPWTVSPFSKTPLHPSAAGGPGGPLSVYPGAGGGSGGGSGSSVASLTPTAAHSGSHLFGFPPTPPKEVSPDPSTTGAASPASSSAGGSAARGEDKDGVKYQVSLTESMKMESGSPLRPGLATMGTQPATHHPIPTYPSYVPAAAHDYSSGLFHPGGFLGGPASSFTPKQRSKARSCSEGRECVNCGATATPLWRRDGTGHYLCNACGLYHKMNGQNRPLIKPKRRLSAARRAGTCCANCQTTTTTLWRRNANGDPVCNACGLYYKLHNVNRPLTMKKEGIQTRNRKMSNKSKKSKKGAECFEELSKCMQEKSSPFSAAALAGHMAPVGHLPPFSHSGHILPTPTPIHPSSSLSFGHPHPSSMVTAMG
row,effect of a mutation on the interaction,Variant
1,with no effect,R361H

# Variants of: B1
# Details: with gata3_human GATA3, P23771
# gata3_human GATA3, P23771, sequence (P23771 whole entry): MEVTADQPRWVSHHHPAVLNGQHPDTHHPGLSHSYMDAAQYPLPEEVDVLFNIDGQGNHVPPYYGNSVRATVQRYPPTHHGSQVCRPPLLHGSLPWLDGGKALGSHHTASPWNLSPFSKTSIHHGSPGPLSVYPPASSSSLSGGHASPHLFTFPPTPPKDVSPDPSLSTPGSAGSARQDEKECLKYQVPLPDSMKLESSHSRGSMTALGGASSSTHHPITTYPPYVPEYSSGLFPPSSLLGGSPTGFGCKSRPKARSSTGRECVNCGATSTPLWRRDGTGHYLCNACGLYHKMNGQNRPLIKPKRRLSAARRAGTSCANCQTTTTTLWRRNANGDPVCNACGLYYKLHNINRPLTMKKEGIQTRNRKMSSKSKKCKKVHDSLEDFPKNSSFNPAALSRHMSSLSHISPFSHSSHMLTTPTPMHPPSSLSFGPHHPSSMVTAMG
row,effect of a mutation on the interaction,Variant
1,with no effect,R361H

# Variants of: B1
# Details: with gna11_human GNA11, P29992
row,effect of a mutation on the interaction,Variant
1,with no effect,R361H

# Variants of: B1
# Details: with gnaq_human GNAQ
row,effect of a mutation on the interaction,Variant
1,with no effect,R361H

# Variants of: B1
# Details: with grm1_human GRM1, Q13255
row,effect of a mutation on the interaction,Variant
1,with no effect,R361H

# Variants of: B1
# Details: with grm3_human GRM3, Q14832
row,effect of a mutation on the interaction,Variant
1,with no effect,R361H

# Variants of: B1
# Details: with gsk3a_human GSK3A
row,effect of a mutation on the interaction,Variant
1,with no effect,R361H

# Variants of: B1
# Details: with hdac1_human HDAC1, Q13547
row,effect of a mutation on the interaction,Variant
1,with no effect,R361H

# Variants of: B1
# Details: with hdac3_human HDAC3, O15379
# hdac3_human HDAC3, O15379, sequence (O15379 whole entry): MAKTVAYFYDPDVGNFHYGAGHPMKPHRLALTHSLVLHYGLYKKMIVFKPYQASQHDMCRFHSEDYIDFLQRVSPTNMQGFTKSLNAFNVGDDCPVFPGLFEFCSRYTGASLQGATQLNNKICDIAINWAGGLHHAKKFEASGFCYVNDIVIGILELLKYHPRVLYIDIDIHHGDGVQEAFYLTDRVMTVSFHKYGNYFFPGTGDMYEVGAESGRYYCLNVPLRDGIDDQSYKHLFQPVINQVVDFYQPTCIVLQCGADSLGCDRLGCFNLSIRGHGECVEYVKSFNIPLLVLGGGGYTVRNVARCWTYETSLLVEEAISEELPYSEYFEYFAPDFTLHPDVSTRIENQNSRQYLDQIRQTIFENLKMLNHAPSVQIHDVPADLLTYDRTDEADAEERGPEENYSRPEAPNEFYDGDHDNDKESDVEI
row,effect of a mutation on the interaction,Variant
1,with no effect,R361H

# Variants of: B1
# Details: with hgf_human HGF
row,effect of a mutation on the interaction,Variant
1,with no effect,R361H

# Variants of: B1
# Details: with h31_human H3C1, P68431
row,effect of a mutation on the interaction,Variant
1,with no effect,R361H

# Variants of: B1
# Details: with hlab_human HLA-B
row,effect of a mutation on the interaction,Variant
1,with no effect,R361H

# Variants of: B1
# Details: with hnf1a_human HNF1A
row,effect of a mutation on the interaction,Variant
1,with no effect,R361H

# Variants of: B1
# Details: with rash_human HRAS
row,effect of a mutation on the interaction,Variant
1,with no effect,R361H

# Variants of: B1
# Details: with hs90a_human HSP90AA1, P07900
row,effect of a mutation on the interaction,Variant
1,with no effect,R361H

# Variants of: B1
# Details: with hs90b_human HSP90AB1, P08238
row,effect of a mutation on the interaction,Variant
1,with no effect,R361H

# Variants of: B1
# Details: with il7ra_human IL7R
row,effect of a mutation on the interaction,Variant
1,with no effect,R361H

# Variants of: B1
# Details: with irf6_human IRF6, O14896
row,effect of a mutation on the interaction,Variant
1,with no effect,R361H

# Variants of: B1
# Details: with irs1_human IRS1, P35568
row,effect of a mutation on the interaction,Variant
1,with no effect,R361H

# Variants of: B1
# Details: with jak1_human JAK1, P23458
row,effect of a mutation on the interaction,Variant
1,with no effect,R361H

# Variants of: B1
# Details: with kdm5c_human KDM5C
row,effect of a mutation on the interaction,Variant
1,with no effect,R361H

# Variants of: B1
# Details: with vgfr2_human KDR
row,effect of a mutation on the interaction,Variant
1,with no effect,R361H

# Variants of: B1
# Details: with keap1_human KEAP1, Q14145
row,effect of a mutation on the interaction,Variant
1,with no effect,R361H

# Variants of: B1
# Details: with klf4_human KLF4, O43474
row,effect of a mutation on the interaction,Variant
1,with no effect,R361H
